Results taken from PMC5454392, “Selective BET bromodomain inhibition as an antifungal therapeutic strategy” (Nature Communications, 2017).
Several values for one entry are separate records, joined by “and”; a condition that tells them apart may be missing. Equal entries are not always repeated. Where two headings read alike, the source gives them in different places.

Legend:
CaBdf1 BD2 [1] = molecular target: T1, CaBdf1 BD2 (Candida albicans, UniProt Q5A4W8); test: HTRF assay, inhibition of BD binding to H4ac4 peptide; parameters: made in house; host or cells: E. coli BL21(DE3)
CaBdf1 BD1 [2] = molecular target: T2, CaBdf1 BD1 (Candida albicans, UniProt Q5A4W8); test: as above; parameters: species or system C. albicans; conditions: HTRF, H4ac4 peptide, BETi, maximal concentration 10 μM
T2 construct: made in house; host or cells: E. coli BL21(DE3)

[3] = test system: 32 representative human (BET and non-BET) BDs; parameters: method as in earlier work; conditions: cited from earlier work
CaBdf1 BD2 [4] = molecular target: T1, CaBdf1 BD2; test: Isothermal titration calorimetry (ITC); assay type: binding; parameters: His tag with TEV site (N, cleaved yes); made in house; host or cells: E. coli BL21(DE3); conditions: ITC
Method: (§1) Proteins used for crystallization and for ITC. […] Cells were resuspended in buffer A (50 mM Tris-HCl pH 7.5, 300 mM NaCl, 10% glycerol, 25 mM imidazole, 5 mM β-mercaptoethanol and protease inhibitors) and lysed by sonication. The cleared lysate was incubated with Ni-NTA resin (Qiagen) and washed with buffer A containing 0.5 M NaCl. Proteins were eluted with 250 mM imidazole, dialysed overnight in the presence of His-tagged TEV protease against buffer A containing no imidazole and incubated with Ni-NTA resin to remove His-tagged species. Proteins were further purified on a Superdex 75 10/300 (GE Healthcare) column in 50 mM Hepes pH 7.5, 150 mM NaCl, 0.5 mM dithiothreitol (DTT). Proteins were concentrated to >20 mg ml^−1 on a Centricon device (Millipore) and used for ITC, TSA and crystallization experiments. […] Expression and purification were performed as above, except that buffer A was replaced by buffer B (50 mM Hepes pH 7.5, 500 mM NaCl, 5% glycerol, 5 mM imidazole and protease inhibitors) and gel filtration was performed in 10 mM Hepes pH 7.5, 500 mM NaCl and 5% glycerol.
(§2) Calorimetric experiments were performed on a NanoITC calorimeter (TA Instruments) at 25 °C while stirring at 250 r.p.m. All proteins were buffer exchanged by gel filtration into 50 mM Hepes pH 7.5, 150 mM NaCl, 0.5 mM DTT, except for SMARCA2 and SMARCA4A BDs, which were exchanged into 10 mM Hepes pH 7.5, 500 mM NaCl and 5% glycerol. […] Titrations consisted of an initial injection of 1.5 μl followed by 19 identical injections of 2.5 μl made at time intervals of 5 min. ITC data were corrected for the heat of dilution of injectant into buffer and analysed with software provided by the manufacturer using a single binding site model. The first data point was excluded from the analysis. Thermodynamic parameters determined from the ITC data are summarized in Supplementary Table 1.

CaBdf1 BD1 [5] = molecular target: T2, CaBdf1 BD1; test: Isothermal titration calorimetry (ITC); assay type: binding; conditions: ITC
Method: as §1, §2

human Brd4 BD1 = human Brd4 BD1 (Homo sapiens, UniProt O60885); test: Isothermal titration calorimetry (ITC); assay type: binding; parameters: human Brd4 BD1 (residues 22–204); His tag with TEV site (N, cleaved yes); made in house; host or cells: E. coli BL21(DE3); conditions: ITC, 25 °C
Method: as §1, §2

CaBdf1 BD1 [6] = molecular target: T3, CaBdf1 BD1 (Candida albicans, UniProt Q5A4W8); assay type: binding; conditions: wild-type BD1; for CaBdf1 BD1 Normalized (0 to 100%) WT: normalized array signal; for CaBdf1 BD1 Raw data WT: peptide array signal;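 for CaBdf1 BD1 Normalized (0 to 100%) WT: normalized to spotted c-myc peptide positive control signal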
T3 construct: made in house; host or cells: E. coli BL21(DE3)
T3 sequence (Q5A4W8 whole entry, looked up): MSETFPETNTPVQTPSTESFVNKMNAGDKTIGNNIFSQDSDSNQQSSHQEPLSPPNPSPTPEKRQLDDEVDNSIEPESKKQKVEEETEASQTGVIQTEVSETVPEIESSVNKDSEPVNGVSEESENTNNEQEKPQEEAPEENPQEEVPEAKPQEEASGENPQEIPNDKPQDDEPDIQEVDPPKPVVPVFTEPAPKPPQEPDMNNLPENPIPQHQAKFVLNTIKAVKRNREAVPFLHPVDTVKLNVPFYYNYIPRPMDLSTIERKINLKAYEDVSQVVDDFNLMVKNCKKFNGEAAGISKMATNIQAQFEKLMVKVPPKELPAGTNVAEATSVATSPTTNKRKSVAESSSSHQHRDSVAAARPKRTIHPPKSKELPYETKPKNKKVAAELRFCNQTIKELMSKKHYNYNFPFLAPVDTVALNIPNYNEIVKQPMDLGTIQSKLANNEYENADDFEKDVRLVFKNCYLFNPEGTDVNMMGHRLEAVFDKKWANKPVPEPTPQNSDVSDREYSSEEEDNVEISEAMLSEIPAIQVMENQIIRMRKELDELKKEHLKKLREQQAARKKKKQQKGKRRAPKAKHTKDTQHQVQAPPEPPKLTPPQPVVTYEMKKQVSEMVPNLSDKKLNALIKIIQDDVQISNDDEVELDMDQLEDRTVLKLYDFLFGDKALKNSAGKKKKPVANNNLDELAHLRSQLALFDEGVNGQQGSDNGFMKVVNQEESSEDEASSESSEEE
Method: (§3) In short, arrays were blocked and incubated with 1 μM of purified CaBdf1 BD1 or BD2. Arrays were incubated with recombinant BDs for 2 h at 4 °C in binding buffer (Tris-HCl 50 mM pH 7.4, NP-40 0.1%, NaCl 150 mM, glycerol 10%). […] Assays were performed in duplicate.

CaBdf1 BD2 [7] = molecular target: T4, CaBdf1 BD2 (Candida albicans, UniProt Q5A4W8); assay type: binding; conditions: wild-type BD2; for CaBdf1 BD2 Normalized (0 to 100%) WT: normalized array signal; for CaBdf1 BD2 Raw data WT: peptide array signal;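 for CaBdf1 BD2 Normalized (0 to 100%) WT: normalized to spotted c-myc peptide positive control signal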
T4 construct: made in house; host or cells: E. coli BL21(DE3)
T4 sequence (Q5A4W8 whole entry, looked up): T3 sequence (Q5A4W8 whole entry, looked up)
Method: as §3

CaBdf1 BD1 Y248F = molecular target: T5, CaBdf1 BD1 Y248F (Candida albicans, UniProt Q5A4W8, Y248F); test: Histone peptide microarray binding, YF mutant;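 for CaBdf1 BD1 Normalized (0 to 100%) YF mutant: normalized to spotted c-myc peptide positive control signal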; parameters: species or system C. albicans; conditions: YF mutant BD1; for CaBdf1 BD1 Normalized (0 to 100%) YF mutant: normalized array signal; for CaBdf1 BD1 Raw data YF mutant: peptide array signal
T5 construct: made in house; host or cells: E. coli BL21(DE3), inferred from the wild-type GST construct
Method: as §3, with “duplicate. Images were acquired on a Bio-Rad ChemiDoc XRS Imaging machine and data were quantified using the array analyser software provided by Active Motif.” for “duplicate.”

CaBdf1 BD2 Y425F = molecular target: T6, CaBdf1 BD2 Y425F (Candida albicans, UniProt Q5A4W8, Y425F); test: Histone peptide microarray binding, YF mutant;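 for CaBdf1 BD2 Normalized (0 to 100%) YF mutant: normalized to spotted c-myc peptide positive control signal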; parameters: species or system C. albicans; conditions: YF mutant BD2; for CaBdf1 BD2 Normalized (0 to 100%) YF mutant: normalized array signal; for CaBdf1 BD2 Raw data YF mutant: peptide array signal
T6 construct: made in house; host or cells: E. coli BL21(DE3), inferred from the wild-type GST construct
Method: as §3, with “duplicate. Images were acquired on a Bio-Rad ChemiDoc XRS Imaging machine and data were quantified using the array analyser software provided by Active Motif.” for “duplicate.”

T6 sequence (Q5A4W8 361-501 Y425F): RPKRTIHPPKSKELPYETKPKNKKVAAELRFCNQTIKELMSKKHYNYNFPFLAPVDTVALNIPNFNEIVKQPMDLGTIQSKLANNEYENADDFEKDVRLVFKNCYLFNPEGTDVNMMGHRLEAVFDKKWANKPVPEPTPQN
T5 sequence (Q5A4W8 193-327 Y248F): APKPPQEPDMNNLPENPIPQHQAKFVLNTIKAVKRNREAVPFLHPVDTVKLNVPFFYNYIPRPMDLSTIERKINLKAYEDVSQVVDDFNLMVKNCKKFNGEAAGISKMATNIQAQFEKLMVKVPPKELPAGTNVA

Row | Compound | IC50 (CaBdf1 BD2 [1]) [µM] | IC50 (CaBdf1 BD1 [2]; read-out: IC50 values) [µM] | CaBdf1 BD1 Normalized (0 to 100%) WT (CaBdf1 BD1 [6]) [%] | CaBdf1 BD1 Raw data WT (CaBdf1 BD1 [6]; first of two raw-data columns) | CaBdf1 BD1 Raw data WT (CaBdf1 BD1 [6]) | CaBdf1 BD2 Normalized (0 to 100%) WT (CaBdf1 BD2 [7]) [%] | CaBdf1 BD2 Raw data WT (CaBdf1 BD2 [7]) | CaBdf1 BD1 Normalized (0 to 100%) YF mutant (CaBdf1 BD1 Y248F) [%] | CaBdf1 BD1 Raw data YF mutant (CaBdf1 BD1 Y248F) | CaBdf1 BD2 Normalized (0 to 100%) YF mutant (CaBdf1 BD2 Y425F) [%] | CaBdf1 BD2 Raw data YF mutant (CaBdf1 BD2 Y425F) | other results
1 | CCOC(=O)Nc1cc(-c2ccc(C)c(NS(C)(=O)=O)c2)nn2c(C)nnc12 [Bromosporine, reference compound] | 0.313 ± 0.002 | > 10 | – | – | – | – | – | – | – | – | – | –
2 | COc1cc2c(cc1-c1c(C)noc1C)ncc1[nH]c(=O)n([C@H](C)c3ccccn3)c12 [IBET-151, reference compound] | 1.47 ± 0.09 | 0.303 ± 0.12 | – | – | – | – | – | – | – | – | – | –
3 | Cc1sc2c(c1C)C(c1ccc(Cl)cc1)=N[C@@H](CC(=O)NCCCCNC(=O)COc1cccc3c1C(=O)N(C1CCC(=O)NC1=O)C3=O)c1nnc(C)n1-2 (some centres unmarked) [dBET1] | – | – | – | – | – | – | – | – | – | – | – | BROMOscan signal, percent of control ([3]; CREBBP, EP300, FALZ and SMARCA4): 25-35%; BROMOscan signal, percent of control ([3]; six BET BDs): 0%; BROMOscan signal, percent of control ([3]; the other two BET BDs): 0.25% and 1.6%; BROMOscan signal, percent of control ([3]; the remaining BDs): > 35%
4 | Cc1sc2c(c1C)C(c1ccc(Cl)cc1)=N[C@@H](CC(=O)OC(C)(C)C)c1nnc(C)n1-2 [JQ1, reference compound] | – | – | – | – | – | – | – | – | – | – | – | IC50 (CaBdf1 BD2 [1]; HTRF, H4ac4 peptide, BETi, maximal concentration 10 μM, read-out: IC50 values): ~10 µM; binding to CaBdf1 BD2 (in words) (CaBdf1 BD2 [4]): no binding was detected; binding to CaBdf1 BD1 (in words) (CaBdf1 BD1 [5]): no binding was detected; IC50 (CaBdf1 BD1 [2]; IC50 values): > 10 µM; N (stoichiometry) (human Brd4 BD1): 1.00 ± 0.03; TΔS (human Brd4 BD1): -2.935 kcal/mol; ΔH (human Brd4 BD1): -12.8 ± 0.12 kcal/mol
5 | COc1ccccc1S(=O)(=O)Nc1ccc2c(c1)CN(C)C(=O)N2 [PFI-1, reference compound] | ~10 | > 10 | – | – | – | – | – | – | – | – | – | –
6 | A Rme2s T Kme2 Q T A R Kme1 S T G G K A P R K Q | – | – | 0.544 | 0.006414 | 0.005345 | 0.444 | 0.005491 | 0.762 | 0.005144 | 0.244 | 0.003398 | CaBdf1 BD2 Raw data WT (CaBdf1 BD2 [7]; first of two raw-data columns): 0.01441; CaBdf1 BD2 Raw data YF mutant (CaBdf1 BD2 Y425F; first of two raw-data columns): 0.002427
7 | A Rme2s T Kac Q T A Rme2s K S T G G K A P R K Q | – | – | 0.363 | 0.003741 | 0.005345 | 0.518 | 0.01235 | 0.485 | 0.003086 | 0.293 | 0.003398 | CaBdf1 BD1 Raw data YF mutant (CaBdf1 BD1 Y248F; first of two raw-data columns): 0.004801
8 | A Rme2s T Kme2 Q T A R Kme3 S T G G K A P R K Q | – | – | 0.145 | 0.004276 | 0.001603 | 0.444 | 0.002745 | 0.312 | 0.002058 | 0.44 | 0.002427 | CaBdf1 BD2 Raw data WT (CaBdf1 BD2 [7]; first of two raw-data columns): 0.01716; CaBdf1 BD1 Raw data YF mutant (CaBdf1 BD1 Y248F; first of two raw-data columns): 0.003086; CaBdf1 BD2 Raw data YF mutant (CaBdf1 BD2 Y425F; first of two raw-data columns): 0.004369
